Test results taken from IntAct's records for PubMed 29039417.

B1: BBSome complex member BBS5 (Homo sapiens), Q8N3I7 (parent)
chain: MSVLDALWEDRDVRFDLSAQQMKTRPGEVLIDCLDSIEDTKGNNGDRGRLLVTNLRILWHSLALSRVNVSVGYNCILNITTRTANSKLRGQTEALYILTKCNSTRFEFIFTNLVPGSPRLFTSVMAVHRAYETSKMYRDFKLRSALIQNKQLRLLPQEHVYDKINGVWNLSSDQGNLGTFFITNVRIVWHANMNDSFNVSIPYLQIRSIKIRDSKFGLALVIESSQQSGGYVLGFKIDPVEKLQESVKEINSLHKVYSASPIFGVDYEMEEKPQPLEALTVEQIQDDVEIDSDGHTDAFVAYFADGNKQQDREPVFSEELGLAIEKLKDGFTLQGLWEVMS
partner: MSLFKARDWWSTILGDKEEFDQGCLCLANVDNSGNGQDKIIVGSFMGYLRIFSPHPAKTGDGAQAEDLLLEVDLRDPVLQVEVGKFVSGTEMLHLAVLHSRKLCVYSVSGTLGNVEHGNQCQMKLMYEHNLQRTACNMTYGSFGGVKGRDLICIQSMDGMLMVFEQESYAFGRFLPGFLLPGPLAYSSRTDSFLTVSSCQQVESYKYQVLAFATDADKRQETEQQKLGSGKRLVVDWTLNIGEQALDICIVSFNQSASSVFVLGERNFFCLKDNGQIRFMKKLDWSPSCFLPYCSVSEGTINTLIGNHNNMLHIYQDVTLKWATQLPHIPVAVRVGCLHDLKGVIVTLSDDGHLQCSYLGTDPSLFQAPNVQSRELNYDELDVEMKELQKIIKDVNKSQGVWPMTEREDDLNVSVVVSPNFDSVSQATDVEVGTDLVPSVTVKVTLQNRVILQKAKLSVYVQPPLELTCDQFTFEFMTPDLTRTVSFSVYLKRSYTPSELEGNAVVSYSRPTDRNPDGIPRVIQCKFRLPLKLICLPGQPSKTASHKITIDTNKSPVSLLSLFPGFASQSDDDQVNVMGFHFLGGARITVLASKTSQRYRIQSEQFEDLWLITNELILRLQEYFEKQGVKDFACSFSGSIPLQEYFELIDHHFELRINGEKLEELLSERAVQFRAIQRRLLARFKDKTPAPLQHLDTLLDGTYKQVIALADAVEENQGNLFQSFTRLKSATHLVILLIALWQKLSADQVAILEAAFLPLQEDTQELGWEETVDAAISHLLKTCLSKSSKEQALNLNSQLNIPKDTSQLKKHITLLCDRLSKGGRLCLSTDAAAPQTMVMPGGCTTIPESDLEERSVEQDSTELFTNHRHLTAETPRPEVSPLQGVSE
B2: BBSome complex member BBS2 (Homo sapiens), Q9BXC9 (parent)
chain: MLLPVFTLKLRHKISPRMVAIGRYDGTHPCLAAATQTGKVFIHNPHTRNQHVSASRVFQSPLESDVSLLSINQAVSCLTAGVLNPELGYDALLVGTQTNLLAYDVYNNSDLFYREVADGANAIVLGTLGDISSPLAIIGGNCALQGFNHEGSDLFWTVTGDNVNSLALCDFDGDGKKELLVGSEDFDIRVFKEDEIVAEMTETEIVTSLCPMYGSRFGYALSNGTVGVYDKTSRYWRIKSKNHAMSIHAFDLNSDGVNELITGWSNGKVDARSDRTGEVIFKDNFSSAIAGVVEGDYRMDGHIQLICCSVDGEIRGYLPGTAEMRGNLMDTSAEQDLIRELSQKKQNLLLELRNYEENAKAELASPLNEADGHRGIIPANTRLHTTLSVSLGNETQTAHTELRISTSNDTIIRAVLIFAEGIFTGESHVVHPSIHNLSSSICIPIVPPKDVPVDLHLKAFVGYRSSTQFHVFESTRQLPRFSMYALTSLDPASEPISYVNFTIAERAQRVVVWLGQNFLLPEDTHIQNAPFQVCFTSLRNGGHLHIKIKLSGEITINTDDIDLAGDIIQSMASFFAIEDLQVEADFPVYFEELRKVLVKVDEYHSVHQKLSADMADHSNLIRSLLVGAEDARLMRDMKTMKSRYMELYDLNRDLLNGYKIRCNNHTELLGNLKAVNQAIQRAGRLRVGKPKNQVITACRDAIRSNNINTLFKIMRVGTASS
partner: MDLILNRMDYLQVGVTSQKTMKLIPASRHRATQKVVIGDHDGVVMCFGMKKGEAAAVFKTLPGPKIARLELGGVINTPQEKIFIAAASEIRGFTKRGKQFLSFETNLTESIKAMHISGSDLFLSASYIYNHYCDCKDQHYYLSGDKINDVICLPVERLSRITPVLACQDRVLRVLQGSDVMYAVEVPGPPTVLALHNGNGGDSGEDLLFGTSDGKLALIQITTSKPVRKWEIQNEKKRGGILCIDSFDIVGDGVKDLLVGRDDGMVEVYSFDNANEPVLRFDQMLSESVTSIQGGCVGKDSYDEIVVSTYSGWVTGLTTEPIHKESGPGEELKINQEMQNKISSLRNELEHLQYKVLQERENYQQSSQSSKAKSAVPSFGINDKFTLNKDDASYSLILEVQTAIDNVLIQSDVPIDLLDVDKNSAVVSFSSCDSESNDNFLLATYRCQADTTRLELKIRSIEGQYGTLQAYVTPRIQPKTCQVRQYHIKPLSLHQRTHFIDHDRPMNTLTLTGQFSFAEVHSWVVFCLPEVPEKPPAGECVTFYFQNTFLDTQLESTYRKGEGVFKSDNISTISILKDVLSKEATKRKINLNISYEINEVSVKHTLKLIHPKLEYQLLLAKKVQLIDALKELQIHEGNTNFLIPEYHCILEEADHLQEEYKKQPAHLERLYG

Variants of: B1
Details: with pthb1_human BBS9, Q3SYG4

Effect of a mutation on the interaction, with no effect:
MEVLDALWEDRDVRFDLSAQQMKTRPGEVLIDCLDSIEDTKGNNGDRGRLLVTNLRILWHSLALSRVNVSVGYNCILNITTRTANSKLRGQTEALYILTKCNSTRFEFIFTNLVPGSPRLFTSVMAVHRAYETSKMYRDFKLRSALIQNKQLRLLPQEHVYDKINGVWNLSSDQGNLGTFFITNVRIVWHANMNDSFNVSIPYLQIRSIKIRDSKFGLALVIESSQQSGGYVLGFKIDPVEKLQESVKEINSLHKVYSASPIFGVDYEMEEKPQPLEALTVEQIQDDVEIDSDGHTDAFVAYFADGNKQQDREPVFSEELGLAIEKLKDGFTLQGLWEVMS [S2E]
MKVLDALWEDRDVRFDLSAQQMKTRPGEVLIDCLDSIEDTKGNNGDRGRLLVTNLRILWHSLALSRVNVSVGYNCILNITTRTANSKLRGQTEALYILTKCNSTRFEFIFTNLVPGSPRLFTSVMAVHRAYETSKMYRDFKLRSALIQNKQLRLLPQEHVYDKINGVWNLSSDQGNLGTFFITNVRIVWHANMNDSFNVSIPYLQIRSIKIRDSKFGLALVIESSQQSGGYVLGFKIDPVEKLQESVKEINSLHKVYSASPIFGVDYEMEEKPQPLEALTVEQIQDDVEIDSDGHTDAFVAYFADGNKQQDREPVFSEELGLAIEKLKDGFTLQGLWEVMS [S2K]
MAVLDALWEDRDVRFDLSAQQMKTRPGEVLIDCLDSIEDTKGNNGDRGRLLVTNLRILWHSLALSRVNVSVGYNCILNITTRTANSKLRGQTEALYILTKCNSTRFEFIFTNLVPGSPRLFTSVMAVHRAYETSKMYRDFKLRSALIQNKQLRLLPQEHVYDKINGVWNLSSDQGNLGTFFITNVRIVWHANMNDSFNVSIPYLQIRSIKIRDSKFGLALVIESSQQSGGYVLGFKIDPVEKLQESVKEINSLHKVYSASPIFGVDYEMEEKPQPLEALTVEQIQDDVEIDSDGHTDAFVAYFADGNKQQDREPVFSEELGLAIEKLKDGFTLQGLWEVMS [S2A]
ESVLDALWEDRDVRFDLSAQQMKTRPGEVLIDCLDSIEDTKGNNGDRGRLLVTNLRILWHSLALSRVNVSVGYNCILNITTRTANSKLRGQTEALYILTKCNSTRFEFIFTNLVPGSPRLFTSVMAVHRAYETSKMYRDFKLRSALIQNKQLRLLPQEHVYDKINGVWNLSSDQGNLGTFFITNVRIVWHANMNDSFNVSIPYLQIRSIKIRDSKFGLALVIESSQQSGGYVLGFKIDPVEKLQESVKEINSLHKVYSASPIFGVDYEMEEKPQPLEALTVEQIQDDVEIDSDGHTDAFVAYFADGNKQQDREPVFSEELGLAIEKLKDGFTLQGLWEVMS [M1E]
ASVLDALWEDRDVRFDLSAQQMKTRPGEVLIDCLDSIEDTKGNNGDRGRLLVTNLRILWHSLALSRVNVSVGYNCILNITTRTANSKLRGQTEALYILTKCNSTRFEFIFTNLVPGSPRLFTSVMAVHRAYETSKMYRDFKLRSALIQNKQLRLLPQEHVYDKINGVWNLSSDQGNLGTFFITNVRIVWHANMNDSFNVSIPYLQIRSIKIRDSKFGLALVIESSQQSGGYVLGFKIDPVEKLQESVKEINSLHKVYSASPIFGVDYEMEEKPQPLEALTVEQIQDDVEIDSDGHTDAFVAYFADGNKQQDREPVFSEELGLAIEKLKDGFTLQGLWEVMS [M1A]
KSVLDALWEDRDVRFDLSAQQMKTRPGEVLIDCLDSIEDTKGNNGDRGRLLVTNLRILWHSLALSRVNVSVGYNCILNITTRTANSKLRGQTEALYILTKCNSTRFEFIFTNLVPGSPRLFTSVMAVHRAYETSKMYRDFKLRSALIQNKQLRLLPQEHVYDKINGVWNLSSDQGNLGTFFITNVRIVWHANMNDSFNVSIPYLQIRSIKIRDSKFGLALVIESSQQSGGYVLGFKIDPVEKLQESVKEINSLHKVYSASPIFGVDYEMEEKPQPLEALTVEQIQDDVEIDSDGHTDAFVAYFADGNKQQDREPVFSEELGLAIEKLKDGFTLQGLWEVMS [M1K]
MSALDALWEDRDVRFDLSAQQMKTRPGEVLIDCLDSIEDTKGNNGDRGRLLVTNLRILWHSLALSRVNVSVGYNCILNITTRTANSKLRGQTEALYILTKCNSTRFEFIFTNLVPGSPRLFTSVMAVHRAYETSKMYRDFKLRSALIQNKQLRLLPQEHVYDKINGVWNLSSDQGNLGTFFITNVRIVWHANMNDSFNVSIPYLQIRSIKIRDSKFGLALVIESSQQSGGYVLGFKIDPVEKLQESVKEINSLHKVYSASPIFGVDYEMEEKPQPLEALTVEQIQDDVEIDSDGHTDAFVAYFADGNKQQDREPVFSEELGLAIEKLKDGFTLQGLWEVMS [V3A]
MSKLDALWEDRDVRFDLSAQQMKTRPGEVLIDCLDSIEDTKGNNGDRGRLLVTNLRILWHSLALSRVNVSVGYNCILNITTRTANSKLRGQTEALYILTKCNSTRFEFIFTNLVPGSPRLFTSVMAVHRAYETSKMYRDFKLRSALIQNKQLRLLPQEHVYDKINGVWNLSSDQGNLGTFFITNVRIVWHANMNDSFNVSIPYLQIRSIKIRDSKFGLALVIESSQQSGGYVLGFKIDPVEKLQESVKEINSLHKVYSASPIFGVDYEMEEKPQPLEALTVEQIQDDVEIDSDGHTDAFVAYFADGNKQQDREPVFSEELGLAIEKLKDGFTLQGLWEVMS [V3K]
MSELDALWEDRDVRFDLSAQQMKTRPGEVLIDCLDSIEDTKGNNGDRGRLLVTNLRILWHSLALSRVNVSVGYNCILNITTRTANSKLRGQTEALYILTKCNSTRFEFIFTNLVPGSPRLFTSVMAVHRAYETSKMYRDFKLRSALIQNKQLRLLPQEHVYDKINGVWNLSSDQGNLGTFFITNVRIVWHANMNDSFNVSIPYLQIRSIKIRDSKFGLALVIESSQQSGGYVLGFKIDPVEKLQESVKEINSLHKVYSASPIFGVDYEMEEKPQPLEALTVEQIQDDVEIDSDGHTDAFVAYFADGNKQQDREPVFSEELGLAIEKLKDGFTLQGLWEVMS [V3E]

Variants of: B2
Details: with BBS7, Q8IWZ6-2

Effect of a mutation on the interaction, with no effect:
I702A
I702E
I702K
A701E
A701K
S720A
S720E
S720K
S704K
S704E
S704A
S721E
S721K
S721A
M714E
M714K
M714A
N705E
N705K
N705A
K712E
K712A
A697E
A697K
C698A
C698K
C698E
Q693A
Q693E
Q693K
P690A
P690K
P690E
V716K
V716E
V716A
N706E
N706K
N706A
I713K
I713E
I713A
